US20230192799A1 (BIOMARIN PHARMACEUTICAL, published 2023)
Bridge positions count the residues as written; N and C are the ends. Ends that are not written are not given here.

Target: natriuretic peptide receptor-B (NPR-B) on the cells of the cGMP stimulation assay of Example 2
Assay: cell-based or functional assay

Binder | EC50, T0 (cGMP stimulation assay) [nM]
Ac-PGQEHPQARRYRGAQRRGLSRGCFGLKLDRIGSMSGLGC-NH2 (disulfide 23-39 (inferred)) [CNP-9] | 0.9
PGQEHPNARKYKGANKKGLSKGCFGLKLDRIGSMSGLGC (disulfide 23-39 (inferred)) [Pro-Gly CNP-37] | 1.7
Ac-PGQEHPNARRYRGANRRGLSRGCFGLKLDRIGSMSGLGC-OH (disulfide 23-39 (inferred)) [CNP-6] | 0.4
Ac-PGQEHPNARRYRGANRRGLSRGCFGLKLDRIGSMSGLGC-NH2 (disulfide 23-39 (inferred)) [CNP-7] | 2.1
Ac-PGQEHPNARKYKGANKKGLSKGCFGLKLDRIGSMSGLGC-NH2 (disulfide 23-39 (inferred)) [CNP-5] | 3
Ac-PGQEHPQARRYRGAQRRGLSRGCFGLKLDRIGSMSGLGC-OH (disulfide 23-39 (inferred)) [CNP-8] | 0.2
